Reference: publication PMC2377097, “Unc45b Forms a Cytosolic Complex with Hsp90 and Targets the Unfolded Myosin Motor Domain” (PLoS ONE, 2008)

Molecular target: the molecule itself
Assay: SEC; Superose 6 HR 10/300, 50 mM Tris-HCl pH 7.4, 150 mM NaCl, 1 mM DTT; purified proteins run alone or as a complex formed from equimolar amounts

B1: rabbit reticulocyte lysate Hsp90 (natural protein)
chain: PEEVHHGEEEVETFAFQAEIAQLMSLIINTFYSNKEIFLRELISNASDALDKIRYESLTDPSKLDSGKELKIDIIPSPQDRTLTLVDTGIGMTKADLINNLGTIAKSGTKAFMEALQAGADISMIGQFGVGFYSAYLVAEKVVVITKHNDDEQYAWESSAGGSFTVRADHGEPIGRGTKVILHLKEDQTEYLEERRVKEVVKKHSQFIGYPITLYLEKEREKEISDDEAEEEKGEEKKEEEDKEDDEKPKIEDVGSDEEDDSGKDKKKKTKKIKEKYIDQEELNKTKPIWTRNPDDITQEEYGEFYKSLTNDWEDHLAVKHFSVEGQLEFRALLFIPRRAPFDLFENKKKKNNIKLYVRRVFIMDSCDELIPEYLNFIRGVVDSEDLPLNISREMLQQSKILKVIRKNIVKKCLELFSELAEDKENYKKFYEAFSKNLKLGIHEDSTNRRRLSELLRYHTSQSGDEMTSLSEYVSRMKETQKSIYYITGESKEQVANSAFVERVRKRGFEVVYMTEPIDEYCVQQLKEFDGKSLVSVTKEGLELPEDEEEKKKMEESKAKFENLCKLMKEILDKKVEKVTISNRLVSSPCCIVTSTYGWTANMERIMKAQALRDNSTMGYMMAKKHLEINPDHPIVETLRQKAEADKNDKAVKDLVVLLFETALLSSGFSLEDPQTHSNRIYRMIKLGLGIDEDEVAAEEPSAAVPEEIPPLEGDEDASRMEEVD
- stoichiometry N: 2
